How the values were obtained:
[1] = biological target: C-Mad2* (closed conformation of full-length human R133A Mad2) (human) (UniProt Q13257); assay: 15N-CEST + 15N-CPMG relaxation dispersion NMR
[2] = biological target: L5I Mad2* (L5I R133A Mad2) (human, UniProt Q13257 1-205, L5I | R133A); assay: NMR titration
[3] = biological target: C-Mad2* (closed conformation of full-length human R133A Mad2) (human, UniProt Q13257 1-205, R133A); assay: NMR titration
Sequence of C-Mad2* (closed conformation of full-length human R133A Mad2) (Q13257 whole entry R133A): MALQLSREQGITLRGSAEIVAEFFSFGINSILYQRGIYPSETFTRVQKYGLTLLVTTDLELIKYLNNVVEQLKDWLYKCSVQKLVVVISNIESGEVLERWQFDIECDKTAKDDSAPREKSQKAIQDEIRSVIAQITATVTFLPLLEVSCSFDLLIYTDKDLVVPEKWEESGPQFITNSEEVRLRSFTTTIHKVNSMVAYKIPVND

Sequence of L5I Mad2* (L5I R133A Mad2) (Q13257 whole entry L5I/R133A): as the sequence (Q13257 whole entry R133A) above, with L5I counted along it

In the case of “C-Mad2* (closed conformation of full-length human R133A Mad2) (from UniProt Q13257 1-205) (natural protein)”, the Kd [1] is reported as 3.4 mM, the koff [1] is reported as 152 s⁻¹ and the kon [1] is reported as 44000 M⁻¹ s⁻¹. It also gave a population of the excited state E1 (pE1) at 133 μM [1] of 3.5%.

SWYSYPPPQRAV [Mad2-binding peptide 1 (MBP1)]: binds [2]; binds [3].
